Square brackets hold non-standard residues; d marks the D form. Ends that are not written are not given here. pY = N[C@@H](Cc1ccc(OP(=O)(O)O)cc1)C(=O)O

B1: SOCS-3 (recombinant, His-tagged) (protein)
chain: MVTHSKFPAAGMSRPLDTSLRLKTFSSKSEYQLVVNAVRKLQESGFYWSAVTGGEANLLLSAEPAGTFLIRDSSDQRHFFTLSVKTQSGTKNLRIQCEGGSFSLQSDPRSTQPVPRFDCVLKLVHHYMPPPGTPSFSLPPTEPSSEVPEQPPAQALPGSTPKRAYYIYSGGEKIPLVLSRPLSSNVATLQHLCRKTVNGHLDSYEKVTQLPGPIREFLDQYDAPL
B2: STASTVE(pY)STVVH (peptide)
chain: STASTVE[pY]STVVH-NH2
modifications: N-terminus assumed
SMILES: CC(C)[C@H](NC(=O)[C@@H](NC(=O)[C@@H](NC(=O)[C@H](CO)NC(=O)[C@H](Cc1ccc(OP(=O)(O)O)cc1)NC(=O)[C@H](CCC(=O)O)NC(=O)[C@@H](NC(=O)[C@@H](NC(=O)[C@H](CO)NC(=O)[C@H](C)NC(=O)[C@@H](NC(=O)[C@@H](N)CO)[C@@H](C)O)[C@@H](C)O)C(C)C)[C@@H](C)O)C(C)C)C(=O)N[C@@H](Cc1c[nH]cn1)C(N)=O
B3: gp130 phosphopeptide S9A (peptide)
chain: STASTVE[pY]ATVVHSG-NH2
modifications: N-terminus assumed
SMILES: CC(C)[C@H](NC(=O)[C@@H](NC(=O)[C@@H](NC(=O)[C@H](C)NC(=O)[C@H](Cc1ccc(OP(=O)(O)O)cc1)NC(=O)[C@H](CCC(=O)O)NC(=O)[C@@H](NC(=O)[C@@H](NC(=O)[C@H](CO)NC(=O)[C@H](C)NC(=O)[C@@H](NC(=O)[C@@H](N)CO)[C@@H](C)O)[C@@H](C)O)C(C)C)[C@@H](C)O)C(C)C)C(=O)N[C@@H](Cc1c[nH]cn1)C(=O)N[C@@H](CO)C(=O)NCC(N)=O
B4: STASTVE(pY)STVVHS (peptide)
chain: STASTVE[pY]STVVHS-NH2
modifications: N-terminus assumed
SMILES: CC(C)[C@H](NC(=O)[C@@H](NC(=O)[C@@H](NC(=O)[C@H](CO)NC(=O)[C@H](Cc1ccc(OP(=O)(O)O)cc1)NC(=O)[C@H](CCC(=O)O)NC(=O)[C@@H](NC(=O)[C@@H](NC(=O)[C@H](CO)NC(=O)[C@H](C)NC(=O)[C@@H](NC(=O)[C@@H](N)CO)[C@@H](C)O)[C@@H](C)O)C(C)C)[C@@H](C)O)C(C)C)C(=O)N[C@@H](Cc1c[nH]cn1)C(=O)N[C@@H](CO)C(N)=O
B5: gp130 phosphopeptide V11A (peptide)
chain: STASTVE[pY]STAVHSG-NH2
modifications: N-terminus assumed
SMILES: CC(C)[C@H](NC(=O)[C@H](C)NC(=O)[C@@H](NC(=O)[C@H](CO)NC(=O)[C@H](Cc1ccc(OP(=O)(O)O)cc1)NC(=O)[C@H](CCC(=O)O)NC(=O)[C@@H](NC(=O)[C@@H](NC(=O)[C@H](CO)NC(=O)[C@H](C)NC(=O)[C@@H](NC(=O)[C@@H](N)CO)[C@@H](C)O)[C@@H](C)O)C(C)C)[C@@H](C)O)C(=O)N[C@@H](Cc1c[nH]cn1)C(=O)N[C@@H](CO)C(=O)NCC(N)=O
B6: AcAE(pY)STVVHSG (peptide)
chain: Ac-AE[pY]STVVHSG-NH2
SMILES: CC(=O)N[C@@H](C)C(=O)N[C@@H](CCC(=O)O)C(=O)N[C@@H](Cc1ccc(OP(=O)(O)O)cc1)C(=O)N[C@@H](CO)C(=O)N[C@H](C(=O)N[C@H](C(=O)N[C@H](C(=O)N[C@@H](Cc1c[nH]cn1)C(=O)N[C@@H](CO)C(=O)NCC(N)=O)C(C)C)C(C)C)[C@@H](C)O

One experiment has as its target T1, gp130(674-688) pY681 control phosphopeptide (mouse, not fully specified (N-terminus); printed as FNSKDQM(pY)SDGNFTD; also: biotinylated, site not given here).
T1 chain: FNSKDQM[pY]SDGNFTD-NH2
The experiment can be described thus: SPR. For orientation: SPR reads the build-up and loss of mass on a sensor chip optically.
B1: the binding result is listed as “no binding”.

For another experiment, the target named is B1. The experiment can be described thus: competition, SPR.
By IC50 is commonly meant the point on the concentration scale where inhibition reaches its midpoint. For B2, the concentration for half-maximal inhibition (IC50) amounted to 77 nM.

Take B3: the IC50 was determined as 72 nM. For B4, the IC50 worked out at 61 nM. B5: the IC50 was 3400 nM.

In the case of B6, the IC50 was found to be 580 nM.

The values above are taken from patent publication US7256007B2, “Methods of regulating cytokine signalling” (The Walter and Eliza Hall Institute of Medical Research, priority 2000, dated 2007).
